Earlier results on one substance are cited in PMC9502310.

The target of this data set is IL-1β (Homo sapiens) (UniProt P01584).

The Kd is a measure of binding affinity in units of concentration. As for B15 (from UniProt P25212), the Kd is 0.234 nM.
